Changes are numbered by the printed parent chain. Read-outs that look alike come from different tables or passages of the source.
Experiments:
R^0 state of PTHR1 = target: T1, R^0 state of PTHR1 (Homo sapiens, UniProt Q03431); conditions: relative to PTH (1-34); cited from earlier work
T1 construct: expressed in transfected cells; host or cells: COS-7, transient; membranes
T1 sequence (Q03431 27-593): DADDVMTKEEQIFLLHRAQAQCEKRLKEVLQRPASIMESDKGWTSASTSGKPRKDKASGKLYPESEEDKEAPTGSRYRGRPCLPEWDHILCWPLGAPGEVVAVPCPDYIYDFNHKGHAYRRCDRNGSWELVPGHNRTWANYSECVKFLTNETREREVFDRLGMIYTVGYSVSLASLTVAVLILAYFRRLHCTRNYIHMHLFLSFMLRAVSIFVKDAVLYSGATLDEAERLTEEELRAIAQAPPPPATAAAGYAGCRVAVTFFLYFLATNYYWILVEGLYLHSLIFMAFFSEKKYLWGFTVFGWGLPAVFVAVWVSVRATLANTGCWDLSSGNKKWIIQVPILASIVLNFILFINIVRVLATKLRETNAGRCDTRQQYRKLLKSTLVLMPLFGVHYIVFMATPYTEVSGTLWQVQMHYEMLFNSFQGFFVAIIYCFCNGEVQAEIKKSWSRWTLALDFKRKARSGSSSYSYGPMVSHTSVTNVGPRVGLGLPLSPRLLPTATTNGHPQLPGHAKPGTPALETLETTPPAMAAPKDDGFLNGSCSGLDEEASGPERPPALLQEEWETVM

PTHR1 [1] = target: T2, PTHR1 (Homo sapiens, UniProt Q03431); test: Functional selectivity (Gs activation/cAMP production vs βarr recruitment); format: cell-based; set-up: expressed in transfected cells; host or cells: cells stably expressing PTHR1; conditions: cAMP activation vs βarr1 and βarr2 recruitment, relative to PTH (1-34)
T2 sequence (Q03431 27-593): T1 sequence (Q03431 27-593)
Experimental: More specifically, the initial studies that yielded the compounds disclosed and claimed herein were conducted to determine whether there is a correlation between βarr recruitment and receptor residence time of a PTHR1 agonist. The initial studies were thus conducted in two steps. First, the functional selectivity (Gs activation as indicated by cAMP production vs. βarr recruitment) of several PTHR1 agonists that display substantial differences in signaling duration were evaluated. Second, novel PTHR1 agonists were designed that have high functional selectivity and evaluated the signaling duration of these biased agonists.
(§1) The functional selectivity of BA058 is more significant than that of PTHrP. […] LA-PTH is a long-acting PTH analog. […] The middle panels in FIG. 2 are graphs depicting, from left-to-right: βarr1 and βarr2 recruitment, presented as normalized BRET signals (bioluminescence resonance energy transfer) as a function of the log of the peptide concentration, and cAmp activation presented as normalized RLU signals (relative light units) as a function of the log of the peptide concentration. Red=PTH. Orange=LA=LA−PTH. Blue=BA058. Green=PTHrP. (BRET assays are well known and suitable kits are available commercially. See, for example, Promega's “NanoBRET” kits, catalogs nos. N1821 and N1811; Promega Corporation, Fitchburg, Wis.). The table at the bottom of FIG. 2 presents the pEC50 and Emax values for the […] and βarr2 recruitment and cAMP activation. FIG. 3 presents the data for the bias of the activity—either toward βarr recruitment or cAMP activation.
Incorporating (R*)-β^2Leu/(D)-Leu at the 7th position or (R*)-β^2Nle at the 8th position leads to high Gs-biased agonism. […] (D)-Nle is poorly tolerated at the 8th position for both cAMP signaling and βarr recruitment. The top panels in FIG. 5 are graphs depicting, from left-to-right: βarr1 and βarr2 recruitment, presented as normalized BRET signals as a function of the log of the peptide concentration, and cAmp activation presented as normalized RLU signals as a function of the log of the peptide concentration. […]

PTHR2 ECL1 chimera = test: Activation of PTHR2 variant, ECL1 chimera; format: cell-based; conditions: 100 nM
Excerpt: (§2) Molecular basis of PTHR1 vs. PTHR2 selectivity. Previous receptor-mutation studies have identified sites within PTHR1 and PTHR2 that play critical roles in determining peptide agonist selectivity.

PTHR2 I244L = target: T3, PTHR2 I244L (Homo sapiens, UniProt P49190, I244L); test: Activation of PTHR2 variant I244L; format: cell-based; conditions: 100 nM
T3 construct: expressed in transfected cells
T3 sequence (P49190 25-550 I244L): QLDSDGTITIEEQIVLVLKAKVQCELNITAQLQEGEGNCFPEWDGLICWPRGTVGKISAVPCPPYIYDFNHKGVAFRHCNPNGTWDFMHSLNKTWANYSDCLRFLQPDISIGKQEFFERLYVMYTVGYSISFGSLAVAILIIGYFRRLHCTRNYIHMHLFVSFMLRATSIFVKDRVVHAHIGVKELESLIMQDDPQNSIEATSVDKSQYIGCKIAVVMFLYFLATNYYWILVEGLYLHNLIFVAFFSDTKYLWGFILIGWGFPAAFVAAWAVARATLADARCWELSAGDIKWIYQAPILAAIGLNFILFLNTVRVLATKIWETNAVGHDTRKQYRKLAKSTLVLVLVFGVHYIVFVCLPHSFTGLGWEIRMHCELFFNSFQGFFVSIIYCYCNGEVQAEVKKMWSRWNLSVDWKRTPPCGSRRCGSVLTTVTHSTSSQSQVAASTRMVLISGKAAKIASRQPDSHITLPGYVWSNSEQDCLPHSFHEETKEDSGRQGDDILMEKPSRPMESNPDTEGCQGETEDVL
Excerpt: as §2

PTHR2 Y318I = target: T4, PTHR2 Y318I (Homo sapiens, UniProt P49190, Y318I); test: Activation of PTHR2 variant Y318I; format: cell-based; conditions: 100 nM
T4 construct: expressed in transfected cells
T4 sequence (P49190 25-550 Y318I): as the sequence (P49190 25-550 I244L) above, with L220I, Y294I counted along it
Excerpt: as §2

PTHR1 [2] = target: T2, PTHR1; set-up: expressed in transfected cells; conditions: previous studies; cited from earlier work
PTHR2 [3] = target: T5, PTHR2 (Homo sapiens, UniProt P49190); set-up: expressed in transfected cells; conditions: previous studies; cited from earlier work
T5 sequence (P49190 25-550): as the sequence (P49190 25-550 I244L) above, with L220I counted along it

PTHR1 [4] = target: T2, PTHR1; test: βarr recruitment (BRET); format: cell-based; set-up: expressed in transfected cells; host or cells: cells stably expressing PTHR1; conditions: compared with PTH and LA-PTH
Excerpt: as §1

PTHR1 [5] = target: T2, PTHR1; test: Wash-out assay, duration of PTHR1 activation; format: cell-based; set-up: expressed in transfected cells; host or cells: cells stably expressing PTHR1; conditions: PTHR1; agonist at ~EC80; PTH(1-34)-NH2 = 100
Excerpt: (§3) Duration of activation for PTHR1 and PTHR2. To assess the duration of PTHR1 and PTHR2 activation induced by α/β-peptides 14 and 15, the time course of cAMP production by each receptor was examined after stimulation with an agonist and subsequent washing of the cells to remove unbound peptide (wash-out assay). […] During the initial “ligand-on” phase, cells stably expressing PTHR1 or PTHR2 were stimulated with an agonist concentration corresponding to ˜EC80; the medium contained D-luciferin. […] After the addition of fresh medium containing D-luciferin, the luminescence decay is measured. The area under the “ligand-off” curve (AUC) reflects the duration of signaling, which may be related to residence time of the agonist on the receptor but could have other origins at the molecular level.

PTHR2 [6] = target: T5, PTHR2; test: Antagonism of PTHR2 activation by PTH(1-34)-NH2; format: cell-based; set-up: expressed in transfected cells; host or cells: cells stably expressing PTHR2; conditions: FIG. 11
Excerpt: Data points represent mean±s.e.m from four independent experiments. Curves were fit to the data using a four-parameter sigmoidal dose-response equation.
See Hoare, S. R. J., Clark, J. A. & Usdin, T. B. Molecular determinants of tuberoinfundibular peptide of 39 residues (TIP39) selectivity for the parathyroid hormone-2 (PTH2) receptor—N-terminal truncation of TIP39 reverses PTH2 receptor/PTH1 receptor binding selectivity. Journal of Biological Chemistry 275, 27274-27283 (2000) and Gardella, T. J., Luck, M. D., Jensen, G. S., Usdin, T. B. & Juppner, H. Converting parathyroid hormone-related peptide (PTHrP) into a potent PTH-2 receptor agonist.

PTHR1-L2891 = target: T6, PTHR1-L2891 (Homo sapiens, UniProt Q03431, L289I); test: Activation of PTHR1 mutant PTHR1-L2891; format: cell-based; conditions: data not shown
T6 construct: expressed in transfected cells
T6 sequence (Q03431 27-593 L289I): T1 sequence (Q03431 27-593) with L263I
Excerpt: (§4) Reciprocal point mutations of PTHR1 were investigated to see if they would enhance the signaling activity of PTHR2-selective agonists.

PTHR1-1363Y = target: T7, PTHR1-1363Y (Homo sapiens, UniProt Q03431, I363Y); test: Activation of PTHR1 mutant PTHR1-1363Y; format: cell-based; conditions: data not shown
T7 construct: expressed in transfected cells
T7 sequence (Q03431 27-593 I363Y): T1 sequence (Q03431 27-593) with I337Y
Excerpt: as §4

PTHR1 [7] = target: T2, PTHR1; test: PTHR1 activation, cAMP production (GloSensor) in HEK293 cells; format: cell-based; set-up: expressed in transfected cells; conditions: wild-type PTHR1
PTHR2 [8] = target: T5, PTHR2; test: Wash-out assay, duration of PTHR2 activation; format: cell-based; set-up: expressed in transfected cells; host or cells: cells stably expressing PTHR2; conditions: PTHR2; agonist at ~EC80; PTH(1-34)-NH2 = 100
Excerpt: as §3

Substance	R0 affinity (in words) (R^0 state of PTHR1)	signaling bias / functional selectivity (in words) (PTHR1 [1])	agonist activity at PTHR2 ECL1 chimera relative to wild-type PTHR2 (in words) (PTHR2 ECL1 chimera)	agonist activity at PTHR2 I244L relative to wild-type PTHR2 (in words) (PTHR2 I244L)	agonist activity at PTHR2 Y318I relative to wild-type PTHR2 (in words) (PTHR2 Y318I)	PTHR1 agonist activity (in words) (PTHR1 [2])	PTHR2 agonist activity (in words) (PTHR2 [3])	βarr recruitment efficacy maximum (in words) (PTHR1 [4])	Normalized ligand-on Emax (PTHR1 [5])	antagonism of PTHR2 activation by PTH(1-34)-NH2 (in words) (PTHR2 [6])	agonist activity at PTHR1-L2891 (in words) (PTHR1-L2891)	agonist activity at PTHR1-1363Y (in words) (PTHR1-1363Y)	PTHR1 agonist activity (in words) (PTHR1 [7])	Normalized ligand-on Emax (PTHR2 [8])
LA-PTH: long-acting PTH analog (AVAEIQLMHQRAKWIQDARRRAFLHKLIAEIHTAEI; Long-acting (LA)-PTH, a parathyroid hormone analog)	high R0 affinity	biased toward βarr1 and βarr2 recruitment relative to cAMP activation	–	–	–	–	–	–	–	–	–	–	–	–
PTHrP(1-36)-NH2: parathyroid hormone-related protein fragment, naturally PTHR1-selective agonist	moderate	biased toward cAMP activation relative to both βarr1 and βarr2 recruitment	much more susceptible to activation	much more susceptible to activation	much more susceptible to activation	potent agonist	very weak agonist	lower efficacy βarr recruitment maximum	102 ± 1	antagonistic effect	–	–	–	–
TIP39-NH2: tuberoinfundibular peptide of 39 residues, naturally PTHR2-selective agonist [reference compound]	–	–	–	–	–	–	–	–	–	–	very weak agonist	very weak agonist	does not activate	99 ± 1
